Test results reported in paper PMC4077652, “An Unstable Th Epitope of P. falciparum Fosters Central Memory T Cells and Anti-CS Antibody Responses” (PLoS ONE, 2014).

B1: unnamed (parent)
chain 1: QNSLSTEWSPCSVT
chain 2: not shown
chain 3: not shown

Variants of: B1
Assay: binding inhibition (competition) assay with biotin-labeled HA 306-318
Settings: peptides tested at 0 to 100 µM, read off a plot

| Variant | IC50 |
| --- | --- |
| chain 1 T14A | 800 nM |
| chain 1 S5A | 950 nM |
| chain 1 S12A | 800 nM |
| chain 1 W8A | 1500 nM |
| chain 1 C11A | 800 nM |
| chain 1 E7A | 3500 nM |
| chain 1 N2A | 2700 nM |
| chain 1 S3A | 1100 nM |
| chain 1 T6A | 1300 nM |
| chain 1 V13A | 500 nM |
| chain 1 P10A | 7800 nM |
| chain 1 Q1A | 1200 nM |
